Laboratory results published in US6472171.

How the values were obtained:
[1] = target: T1, chicken protein disulfide isomerase, P09102
T1 chain: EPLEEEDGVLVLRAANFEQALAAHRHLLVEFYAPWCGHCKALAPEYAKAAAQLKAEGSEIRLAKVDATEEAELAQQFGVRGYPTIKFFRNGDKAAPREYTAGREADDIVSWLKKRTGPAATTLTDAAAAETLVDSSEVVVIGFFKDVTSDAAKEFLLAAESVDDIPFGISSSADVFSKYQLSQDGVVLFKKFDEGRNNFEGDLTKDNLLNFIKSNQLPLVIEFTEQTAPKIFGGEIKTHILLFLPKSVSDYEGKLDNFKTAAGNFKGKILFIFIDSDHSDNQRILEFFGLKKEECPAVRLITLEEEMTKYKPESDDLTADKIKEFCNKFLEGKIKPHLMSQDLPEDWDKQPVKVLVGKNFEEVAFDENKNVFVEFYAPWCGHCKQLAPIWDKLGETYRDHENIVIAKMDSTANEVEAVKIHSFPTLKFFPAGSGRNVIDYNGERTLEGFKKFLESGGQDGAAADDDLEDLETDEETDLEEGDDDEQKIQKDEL

[2] = target: human protein disulfide isomerase, P07237
Chain of human protein disulfide isomerase, P07237 (P07237 18-508): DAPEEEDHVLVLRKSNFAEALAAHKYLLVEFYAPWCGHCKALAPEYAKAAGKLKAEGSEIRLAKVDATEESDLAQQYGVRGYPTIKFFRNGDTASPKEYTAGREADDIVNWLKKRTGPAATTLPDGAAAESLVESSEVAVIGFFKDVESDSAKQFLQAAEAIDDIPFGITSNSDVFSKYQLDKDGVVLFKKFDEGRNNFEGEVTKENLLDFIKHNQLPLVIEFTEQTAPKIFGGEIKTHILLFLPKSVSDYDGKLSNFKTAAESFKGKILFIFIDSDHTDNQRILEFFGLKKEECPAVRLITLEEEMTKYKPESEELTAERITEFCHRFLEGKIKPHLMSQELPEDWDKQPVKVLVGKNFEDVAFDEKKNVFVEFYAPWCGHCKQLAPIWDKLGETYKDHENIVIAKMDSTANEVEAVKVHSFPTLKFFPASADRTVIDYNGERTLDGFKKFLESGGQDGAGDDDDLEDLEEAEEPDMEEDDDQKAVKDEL

B1: chicken prolyl 4-hydroxylase subunit (protein)
chain: HTDFFTSIGHMTDLINTEKDLVISKLKDYIKAEESKLEQIKKWAEKLDKLTDTATKDPEGFLGHPANAFKLMKRLNTEWGELESLVLKDMSDGFISNMTIQRQFFPNDEDQTGARKALLRLQDTYNLDTDTLSRGNLPGVKHKSFLTAEDCFELGKIRYTEADYYHTELWMEQALKQLDEGEVSSADKVYILDYLSYAVYQQGDLSKAMMLTKRLLELDPEHQRANGNMKYFEYIMAKEKEANKSSTDAEDQTDKETEVKKKDYLPERRKYEMLCRGEGLKMTPRRQKRLFCRYYDGNRNPRYILGPVKQEDEWDKPRIVRFLDIISDEEIETVKELAKPRLSRATVHDPETGKLTTAHYRVSKSAWLSGYESPVVSRINTRIQDLTGLDVSTAEELQVANYGVGGQYEPHFDFGRKDEPDAFKELGTGNRIATWLFYMSDVSAGGATVFPEVGASVWPKKGTAVFWYNLFPSGEGDYSTRHAACPVLVGNKWVSNKWLHERGQEFRRPCTLSELE
production of hydroxylated, heterotrimeric type 1 procollagen in yeast (plasmid Gp5563, cPDI/cP4-H) [1]: produce levels of hydroxylated heterotrimeric procollagen equal to that found with plasmid Gp5511

B2: human prolyl 4-hydroxylase subunit (protein)
chain: HPGFFTSIGQMTDLIHTEKDLVTSLKDYIKAEEDKLEQIKKWAEKLDRLTSTATKDPEGFVGHPVNAFKLMKRLNTEWSELENLVLKDMSDGFISNLTIQRQYFPNDEDQVGAAKALLRLQDTYNLDTDTISKGNLPGVKHKSFLTAEDCFELGKVAYTEADYYHTELWMEQALRQLDEGEISTIDKVSVLDYLSYAVYQQGDLDKALLLTKKLLELDPEHQRANGNLKYFEYIMAKEKDVNKSASDDQSDQKTTPKKKGVAVDYLPERQKYEMLCRGEGIKMTPRRQKKLFCRYHDGNRNPKFILAPAKQEDEWDKPRIIRFHDIISDAEIEIVKDLAKPRLRRATISNPITGDLETVHYRISKSAWLSGYENPVVSRINMRIQDLTGLDVSTAEELQVANYGVGGQYEPHFDFARKDEPDAFKELGTGNRIATWLFYMSDVSAGGATVFPEVGASVWPKKGTAVFWYNLFASGEGDYSTRHAACPVLVGNKWVSNKWLHERGQEFRRPCTLSELE
production of hydroxylated, heterotrimeric type 1 procollagen in yeast (plasmid Gp5511, cPDI/hP4-H) [1]: Plasmid Gp5511 (cPDI/hP4-H) generated the first hydroxylated type 1 (α1α2) procollagen expressed in yeast
production of hydroxylated, heterotrimeric type 1 procollagen in yeast (plasmid Gp5565, hPDI/hP4-H) [2]: < 3 times lower
